Data: patent JPH11332563A

Target: ヒト可溶性CD4 (human soluble CD4 prepared in Example 2, C-terminal FLAG-tag, from COS7 cells) (human) (UniProt P01730)
Test: SPR (BIAcore 2000), antibody amine-coupled on CM5, soluble CD4 as analyte

## 13B8.2抗体 (イムノテック社) (antibody)
  Kd: 7.58 nM
  koff: 0.000138 s⁻¹
  kon: 18200 M⁻¹ s⁻¹
